Measured values published in US20240076386A1 (Pfizer, published 2024).
Substitutions are numbered along the chain they refer to.

T1: human E-selectin extracellular domain with 10 His purification tail (human, UniProt P16581 22-556)
T1 construct: also called soluable human E-selectin extracellular domain; rhE-Selectin
T1 sequence: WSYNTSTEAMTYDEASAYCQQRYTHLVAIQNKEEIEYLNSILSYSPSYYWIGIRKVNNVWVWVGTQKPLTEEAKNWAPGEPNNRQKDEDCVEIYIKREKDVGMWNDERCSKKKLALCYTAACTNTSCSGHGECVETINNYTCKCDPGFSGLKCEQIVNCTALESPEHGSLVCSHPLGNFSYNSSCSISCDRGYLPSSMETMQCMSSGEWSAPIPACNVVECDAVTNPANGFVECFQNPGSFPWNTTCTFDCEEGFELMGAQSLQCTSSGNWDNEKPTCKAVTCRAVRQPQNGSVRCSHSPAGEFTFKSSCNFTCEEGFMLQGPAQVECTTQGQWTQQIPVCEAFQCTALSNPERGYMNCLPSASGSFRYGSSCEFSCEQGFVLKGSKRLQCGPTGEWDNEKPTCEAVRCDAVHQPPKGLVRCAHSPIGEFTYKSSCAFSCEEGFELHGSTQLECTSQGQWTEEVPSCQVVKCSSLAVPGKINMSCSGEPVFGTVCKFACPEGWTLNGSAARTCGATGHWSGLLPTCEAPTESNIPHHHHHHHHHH

T2: cynomolgus monkey E-selectin extracellular domain with 10 His purification tail (cynomolgus monkey, UniProt P16581 22-554 (human entry))
T2 construct: also called cynomolgus E-selectin; truncated cynomolgus monkey E-selectin
T2 chain: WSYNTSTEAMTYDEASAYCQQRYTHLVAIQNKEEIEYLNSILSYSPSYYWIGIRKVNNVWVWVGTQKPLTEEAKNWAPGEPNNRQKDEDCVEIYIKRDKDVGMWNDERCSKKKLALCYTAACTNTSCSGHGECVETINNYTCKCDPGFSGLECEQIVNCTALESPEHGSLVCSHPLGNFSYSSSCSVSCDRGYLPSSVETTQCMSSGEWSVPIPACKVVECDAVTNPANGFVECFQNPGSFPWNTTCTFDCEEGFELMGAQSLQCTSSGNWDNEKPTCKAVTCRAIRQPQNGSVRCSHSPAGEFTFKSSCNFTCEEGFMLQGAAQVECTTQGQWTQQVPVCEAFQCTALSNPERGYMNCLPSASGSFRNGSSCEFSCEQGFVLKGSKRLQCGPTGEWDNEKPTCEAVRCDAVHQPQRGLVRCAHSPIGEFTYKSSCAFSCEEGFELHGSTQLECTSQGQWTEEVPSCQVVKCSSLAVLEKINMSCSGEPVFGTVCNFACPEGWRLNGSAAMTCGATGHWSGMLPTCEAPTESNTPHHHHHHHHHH

B1: optimized anti-E-selectin antibody 1282 (antibody, human IgG1, kappa, V domains shown)
VH: EVQLVESGGGLVQPGGSLRLSCAASGYAIRSAYMHWVRQAPGKGLEWVARIDPANGNTIYVDSVEGRFTISADNAKNSAYLQMNSLRAEDTAVYYCAMDLYSTSEYWGQGTLVTVSS
VL: DIQMTQSPSSLSASVGDRVTITCKTSQNIERYLNWYQQKPGKAPKLLIYAASSLQSGVPSRFSGSGSGTDFTLTISSLQPEDFATYFCLQDNAWPLTFGQGTKVEIKR
notes: effector-null human IgG1, kappa
B2: optimized anti-E-selectin antibody 1284 (antibody, human IgG1, kappa, V domains shown)
VH: B1 VH with D62E
VL: B1 VL
notes: as for B1
B3: optimized anti-E-selectin antibody 1444 (antibody, human IgG1, kappa, V domains shown)
VH: B1 VH with E65T
VL: B1 VL
notes: as for B1
B4: optimized anti-E-selectin antibody 1448 (antibody, human IgG1, kappa, V domains shown)
VH: B1 VH with E65K, G66E
VL: B1 VL
notes: as for B1
B5: anti-E-selectin antibody 0039 chimera (antibody, human IgG1, kappa, V domains shown)
VH: QVQLKETGPGLVQPTQTLSITCTVSGFSLTGYYMQWVRQTPGKGLEWMGFIRSSGSTEYNSEFKSRLSISRDTSKNQVFLKMNSLKTEDTGVYYCARCPYKYSSFVYVGVMDAWGQGAPVTVSS
VL: EIVMTQSPTSMSTSIGERVTLNCKASQTVGINVDWYQQTPGQPPKLLIYGASNRHTGVPDRFTGSGFGRDFTLTISNVEAEDLAVYCCLQYGSIPHTFGPGTKLELKR
notes: rat VH/VL on effector-null human IgG1 and human kappa
B6: anti-E-selectin antibody 0180 chimera (antibody, human IgG1, kappa, V domains shown)
VH: EVQLQQSGAELGKPGTSVKLSCKVSGYKIRSSYMHWVNQRPGKGLEWIGRIDPANGNTIYGDKFKSKATLTSDTSSNTAYIQLSQLKSDDTAIYFCAIDIGTTFDYWGQGVMVTVSS
VL: DIQMTQSPSFLSASVGDRVTINCKASQHINRYLNWYQQKLGEAPKLLIYDANNLQTGIPSRFSGSGSGTDFTLTISSLQPEDVATYFCLQHNSWPNTFGAGTKLELKR
notes: as for B5
B7: anti-E-selectin antibody 0164 chimera (antibody, human IgG1, kappa, V domains shown)
VH: EVQLQQSGAEFGKPGTSVKLSCKVSGYNIRSSYMHWVNQRPGKGLEWIGRIDPANGNTIYAEKFKIKAILTADSSSNTAYMQLSQLKSDDTAIYFCAMDLYSTSEYWGQGVMVTVSS
VL: B6 VL with A25T, H28N, D50N, N53S, G64A, S76N, H91D, N96L, A100S, L106I
notes: as for B5
B8: anti-E-selectin antibody 0159 chimera (antibody, human IgG1, kappa, V domains shown)
VH: EVQLQQSGAELGKPGTSVKLSCKVSGYNIRSTYMHWVSQRPGKGLEWIGRIDPANGNTIYAEKFKRKATLTADTSSNTAYMQLSQLKSDDRAIYFCAMEVRVSFEYWGQGVMVTVSS
VL: DIQMTQSPSFLSASVGDRVTINCKASQNINKYLDWYQQKLGEGPKLLIYYTNNLHTGIPSRFSGSGSGTDFTLTISSLQPEDVATYFCLQHDSGYTFGAGTKLELKR
notes: as for B5
B9: anti-E-selectin antibody 0170 chimera (antibody, human IgG1, kappa, V domains shown)
VH: EVQLQQSGAELGKPGTSVKLSCKVSGYSIRSTYMHWVNQRPGKGLEWVGRIDPANGNTIYAERFKNKATLTADTSSNTAYMQLSQLKSDDTAIYFCAVEILGIFDYWGQGVMVTVSS
VL: B8 VL with N30D, G43A, I48M, Y50N, N53S, D92N
notes: as for B5
B10: anti-E-selectin antibody 0158 chimera (antibody, human IgG1, kappa, V domains shown)
VH: QVQLKESGPGLVQPSETLSLTCTVSGFSISTYNVHWLRQPPGKGLEWMGMMWSGGSPDYNSALKSRLSISRDTSKNQVFLKMNSLQSEDTTTYYCARWGGGFDYWGQGVMVTVSS
VL: DIVLTQSPTTLSVTPGETVSLSCRASHSIGTNLHWYQQKTNESPRLLIKFTSQSISGIPSRFSASGSGTDFTLNINNVEFDDVSSYFCQQTQSWPLTFGSGTKLEIKR
notes: as for B5

Each binder was assayed against T1, human E-selectin extracellular domain … (assay: SPR, antibody captured, E-selectin analyte).
Description: (§1) All flow cells were blocked with 1M Ethanolamine-HCl (ETH) for 7 minutes at 10 μL/minute. Final immobilization level of the capture antibody was approximately 10,000 resonance units (RU). The running buffer for immobilization and kinetics was HBS-EP+(10 mM 4-(2-hydroxyethyl)-1-piperazineethanesulfonic acid (HEPES) pH 7.4, 150 mM sodium chloride, 3 mM ethylenediaminetetraacetic acid (EDTA), 0.05% (v/v) Tween-20).
(§2) To characterize binding of antibodies to human, cynomolgus monkey, and mouse E-selectin, an antibody was diluted to 0.5 μg/mL in HBS-EP+ and captured by the anti-human IgG immobilized on flow cells 2, 3 and 4 for 30 seconds to 1 minute at a flow rate of 10 μL/minute to achieve a capture level of 70 to 300 RU. Flow cell 1 was used as a reference surface. […] HBS-EP+ buffer cycles collected for each captured antibody were used for double-referencing (Myszka D G. J. Mol. Recognition 1999; 12(5):279-84). At the end of each cycle, the entire anti-IgG surface was regenerated by a 30 second pulse of 3 M MgCl₂ and a 30 second pulse of ionic buffer (1.83 M MgCl₂, 0.92 M Urea, 1.83 M Guanidine HCl, pH 7.4) (Andersson K. Analy. Chem. 1999; 71(13): 2475-81). Kinetic assays were conducted at 25° C. at a collection rate of 10 Hertz (Hz) on a BIAcore™ T200 instrument (GE Healthcare). Rate constants and affinities were determined by fitting the data to a 1:1 binding model in BIAcore™ T200 Evaluation software version 3.0 (GE Healthcare).
(§3) This was done by first binding the antibody to immobilized anti-human IgG. After antibody capture, dilutions of the E-selectin proteins were flowed over and the association rate constant (ka), disassociation rate constant (kd), t½, and KD values were determined for binding to human and cynomolgus (Table 26).

Row | Kd | koff | kon | t½ | Binder
1 | 70.3 nM | 0.0141 s⁻¹ | 201000 M⁻¹ s⁻¹ | 49.3 s | B1
2 | 65.2 nM | 0.0145 s⁻¹ | 222000 M⁻¹ s⁻¹ | 48 s | B2
3 | 61.8 nM | 0.0163 s⁻¹ | 264000 M⁻¹ s⁻¹ | 42.7 s | B3
4 | 60.5 nM | 0.0126 s⁻¹ | 210000 M⁻¹ s⁻¹ | 55 s | B4

Target: T2, cynomolgus monkey E-selectin …
Assay: SPR, antibody captured, E-selectin analyte
Description: as §1, §2, §3

Row | Kd | koff | kon | t½ | Binder
5 | 78.3 nM | 0.0176 s⁻¹ | 227000 M⁻¹ s⁻¹ | 39.4 s | B1
6 | 76.5 nM | 0.018 s⁻¹ | 236000 M⁻¹ s⁻¹ | 38.5 s | B2
7 | 81.5 nM | 0.0171 s⁻¹ | 211000 M⁻¹ s⁻¹ | 40.5 s | B3
8 | 67.8 nM | 0.015 s⁻¹ | 222000 M⁻¹ s⁻¹ | 46.2 s | B4

Target: T2, cynomolgus monkey E-selectin …
Assay: AlphaLISA competition vs sialyl Lewis A-PAA-biotin
Description: The neutralization ability of anti-E-selectin antibodies was measured in an AlphaLISA homogenous competition assay. […] This was incubated at room temperature for 15 minutes, followed by addition of 1.4 μL of human, mouse or cynomolgus monkey E-selectin added to a final concentration of 7 nM. This was again incubated at room temperature for 15 minutes. To this, 1.4 μL AlphaLISA beads was added (Ni-donor/SA-acceptor) for a final assay concentration of 10 μg/mL. This was incubated in the dark at room temperate for at least 10 hours. The plates were then read using the AlphaLISA protocol (Envision).

Row | EC50 | Binder
9 | > 63 nM | B5
10 | < 1 nM | B6
11 | < 1 nM | B7
12 | < 1 nM | B8
13 | < 1 nM | B9

Target: T1, human E-selectin extracellular domain …
Assay: SPR, antibody captured, E-selectin analyte
Remark: another data set of the same source
Description: as §2

Row | Kd | koff | kon | t½ | Binder
14 | 68 nM | 0.00421 s⁻¹ | 64200 M⁻¹ s⁻¹ | 174 s | B5
15 | 21.6 nM | 0.00175 s⁻¹ | 81000 M⁻¹ s⁻¹ | 397 s | B10
16 | 2940 nM | 0.666 s⁻¹ | 262000 M⁻¹ s⁻¹ | 1.05 s | B6
17 | 54.4 nM | 0.0113 s⁻¹ | 207000 M⁻¹ s⁻¹ | 61.6 s | B7
18 | 324 nM | 0.0371 s⁻¹ | 115000 M⁻¹ s⁻¹ | 18.7 s | B8
19 | 628 nM | 0.0549 s⁻¹ | 87400 M⁻¹ s⁻¹ | 12.6 s | B9
